Laboratory results reported in WO2020216210A1 (dated 2020).

Biological target: T1, human EpCAM full-length protein (on MCF-7 and A431 cells) (human, UniProt P16422 24-314)
T1 construct: Endogenous EpCAM on the cell lines MCF-7 and A431 (ATCC); also called CD326; epithelial cell adhesion molecule
T1 sequence: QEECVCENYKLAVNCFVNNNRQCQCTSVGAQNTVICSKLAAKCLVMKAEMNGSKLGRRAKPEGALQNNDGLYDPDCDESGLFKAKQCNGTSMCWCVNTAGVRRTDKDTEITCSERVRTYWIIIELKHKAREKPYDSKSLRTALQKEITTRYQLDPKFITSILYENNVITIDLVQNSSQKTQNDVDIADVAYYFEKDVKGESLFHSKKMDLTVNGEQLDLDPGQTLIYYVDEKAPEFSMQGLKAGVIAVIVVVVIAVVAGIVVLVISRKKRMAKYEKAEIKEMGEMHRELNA
Test: flow cytometry (FACS) on MCF-7 and A431 cells, Alexa Fluor 488 goat anti-human IgG detection

B1: fully human antibody h1905 (antibody, human IgG1, kappa, V domains shown)
VH: QMQLVQSGAEVKKPGASVKVSCKASGYTFTSYDINWVRQATGQGLEWMGWMNPNSGNTGYAQKFQGRVTMTRNTSISTAYMELSSLRSEDTAVYYCARGVVVVVAATRGHYYYYYGMDVWGQGTTVTVSS
VL: DIQMTQSPSSLSASIGDRVSMTCRASQSVTKYLNWYQQTPGKPPKLLIFSASHLQTGVPSRFSGSGSGTDFTLTIDSLQPEDVATYYCQQSYSTPFTFGQGTKVEIKR
notes: Complete antibody VH-CH1-FC/VL-CL built from a phage scFv
B1: binds.

B2: fully human antibody h1907 (antibody, human IgG1, kappa, V domains shown)
VH: QVTLKESGPTLVKPTQTLTLTCTFSGFSLSTSGVAVGWIRQPPGKALEWLALIYWDADTRYSPSLKSRLTITKDTSKNQVVLTMTNMDPVDTATYYCAHRPHGSGSYYAFDYWGQGILVTVSS
VL: DIVMTQSPSSLSASVGDRVTISCRASQNIRNYLNWYQHRPGEAPKLLISGVSRLQNGVPSRFSGSGSGTDFTLTIRSLQSEDFATYYCQQSYINWTFGQGTKVEIKR
notes: as for B1
B2: binds.
